T1: biotinylated p53β peptide (human, also: biotinylated, site not given here)
T1 construct: also called biotinylated p53-aggregating peptide
T1 peptide: ILTIITL

B1: KLH32_HUMAN peptide ILCDITL (peptide)
peptide: ILCDITL
notes: spot-synthesized on membrane; also called position Nr 43
B2: CBPC3_HUMAN peptide ILTITTP (peptide)
peptide: ILTITTP
notes: spot-synthesized on membrane; also called position Nr 39
B3: P73_HUMAN peptide ILIIITL (peptide)
peptide: ILIIITL
notes: spot-synthesized on membrane; also called p73β; position Nr 35
B4: P63_HUMAN peptide ILIIVTL (peptide)
peptide: ILIIVTL
notes: spot-synthesized on membrane; also called p63β; position Nr 16
B5: P53_HUMAN peptide ILTIITL (immobilised spot) (peptide)
peptide: ILTIITL
notes: spot-synthesized on membrane; also called p53β; position Nr 1
B6: DHX29_HUMAN peptide ILQIITE (peptide)
peptide: ILQIITE
notes: spot-synthesized on membrane; also called position Nr 44
B7: CGRF1_HUMAN peptide ITTGITL (peptide)
peptide: ITTGITL
notes: spot-synthesized on membrane; also called CGRF1 segment; position Nr 30
B8: CD041_HUMAN peptide ITTVITL (peptide)
peptide: ITTVITL
notes: spot-synthesized on membrane; also called position Nr 8
B9: VATA_HUMAN peptide IYTGITL (peptide)
peptide: IYTGITL
notes: spot-synthesized on membrane; also called position Nr 14
B10: CYTIP_HUMAN peptide LLTIETL (peptide)
peptide: LLTIETL
notes: spot-synthesized on membrane; also called position Nr 24
B11: PDS5A_HUMAN peptide IVTIITA (peptide)
peptide: IVTIITA
notes: spot-synthesized on membrane; also called position Nr 3
B12: CASP8_HUMAN peptide ILTILTE (peptide)
peptide: ILTILTE
notes: spot-synthesized on membrane; also called caspase-8 (CASP8) segment; position Nr 11
B13: Control peptide RRPILTIITLEDGS (peptide)
peptide: RRPILTIITLEDGS
notes: spot-synthesized on membrane; longer peptide that holds ILTIITL; also called position Nr 2
B14: CT132_HUMAN peptide IKSIITL (peptide)
peptide: IKSIITL
notes: spot-synthesized on membrane; also called position Nr 45
B15: TAGAP_HUMAN peptide ILTILCL (peptide)
peptide: ILTILCL
notes: spot-synthesized on membrane; also called position Nr 5
B16: AL2SA_HUMAN peptide GLTIPTL (peptide)
peptide: GLTIPTL
notes: spot-synthesized on membrane; also called position Nr 52
B17: RTEL1_HUMAN peptide ILTSGTL (peptide)
peptide: ILTSGTL
notes: spot-synthesized on membrane; also called position Nr 36
B18: DIP2B_HUMAN peptide ILTSQTL (peptide)
peptide: ILTSQTL
notes: spot-synthesized on membrane; also called position Nr 20
B19: KV117_HUMAN peptide TLTISTL (peptide)
peptide: TLTISTL
notes: spot-synthesized on membrane; also called position Nr 15
B20: BPTF_HUMAN peptide VLTISTL (peptide)
peptide: VLTISTL
notes: spot-synthesized on membrane; also called position Nr 10
B21: PRA10_HUMAN peptide FLTIFTL (peptide)
peptide: FLTIFTL
notes: spot-synthesized on membrane; also called position Nr 25
B22: SCC4_HUMAN peptide IQTISTL (peptide)
peptide: IQTISTL
notes: spot-synthesized on membrane; also called position Nr 55
B23: RTTN_HUMAN peptide ILTICTK (peptide)
peptide: ILTICTK
notes: spot-synthesized on membrane; also called position Nr 47
B24: PTPC1_HUMAN peptide IKTIINL (peptide)
peptide: IKTIINL
notes: spot-synthesized on membrane; also called position Nr 33
B25: TAF4B_HUMAN peptide ILKQITL (peptide)
peptide: ILKQITL
notes: spot-synthesized on membrane; also called position Nr 49
B26: BPA1_HUMAN peptide ILKNITL (peptide)
peptide: ILKNITL
notes: spot-synthesized on membrane; also called position Nr 46
B27: CD2A1_HUMAN peptide ILRQITL (peptide)
peptide: ILRQITL
notes: spot-synthesized on membrane; also called position Nr 56
B28: BN3D2_HUMAN peptide ALTFITL (peptide)
peptide: ALTFITL
notes: spot-synthesized on membrane; also called position Nr 7
B29: MX2_HUMAN peptide DLTIIDL (peptide)
peptide: DLTIIDL
notes: spot-synthesized on membrane; also called position Nr 50
B30: KV122_HUMAN peptide ILTISSL (peptide)
peptide: ILTISSL
notes: spot-synthesized on membrane; also called position Nr 22
B31: DHX33_HUMAN peptide ILTIVSL (peptide)
peptide: ILTIVSL
notes: spot-synthesized on membrane; also called position Nr 4
B32: PGTA_HUMAN peptide LLTIILL (peptide)
peptide: LLTIILL
notes: spot-synthesized on membrane; also called position Nr 9
B33: EPMIP_HUMAN peptide LLTIINL (peptide)
peptide: LLTIINL
notes: spot-synthesized on membrane; also called position Nr 6
B34: SPEF2_HUMAN peptide ILSIDTL (peptide)
peptide: ILSIDTL
notes: spot-synthesized on membrane; also called position Nr 54
B35: BCL6B_HUMAN peptide ILTDVTL (peptide)
peptide: ILTDVTL
notes: spot-synthesized on membrane; also called position Nr 40
B36: HEAT1_HUMAN peptide ILTKISL (peptide)
peptide: ILTKISL
notes: spot-synthesized on membrane; also called position Nr 13
B37: ANXA6_HUMAN peptide ILDIITS (peptide)
peptide: ILDIITS
notes: spot-synthesized on membrane; also called annexin-6 peptide fragment; position Nr 29
B38: GCDH_HUMAN peptide MLTEITL (peptide)
peptide: MLTEITL
notes: spot-synthesized on membrane; also called position Nr 19
B39: CM031_HUMAN peptide KLTIITS (peptide)
peptide: KLTIITS
notes: spot-synthesized on membrane; also called position Nr 53
B40: TRI18_HUMAN peptide CLTIITG (peptide)
peptide: CLTIITG
notes: spot-synthesized on membrane; also called position Nr 26
B41: DYH3_HUMAN peptide ILTFKTL (peptide)
peptide: ILTFKTL
notes: spot-synthesized on membrane; also called position Nr 12
B42: SMG1_HUMAN peptide ILTLIEL (peptide)
peptide: ILTLIEL
notes: spot-synthesized on membrane; also called position Nr 41
B43: PK3C3_HUMAN peptide ILQIISL (peptide)
peptide: ILQIISL
notes: spot-synthesized on membrane; also called position Nr 18
B44: ZN830_HUMAN peptide ILTIKEL (peptide)
peptide: ILTIKEL
notes: spot-synthesized on membrane; also called position Nr 31
B45: CC132_HUMAN peptide ILTNTTL (peptide)
peptide: ILTNTTL
notes: spot-synthesized on membrane; also called position Nr 21
B46: CXL11_HUMAN peptide IEVIITL (peptide)
peptide: IEVIITL
notes: spot-synthesized on membrane; also called position Nr 32
B47: LRC40_HUMAN peptide IHAIITL (peptide)
peptide: IHAIITL
notes: spot-synthesized on membrane; also called position Nr 27
B48: RFC5_HUMAN peptide ILTEIHL (peptide)
peptide: ILTEIHL
notes: spot-synthesized on membrane; also called position Nr 34
B49: METH_HUMAN peptide ILTIGTG (peptide)
peptide: ILTIGTG
notes: spot-synthesized on membrane; also called methionine synthase (METH) segment; position Nr 38
B50: NOL11_HUMAN peptide ILTKYTL (peptide)
peptide: ILTKYTL
notes: spot-synthesized on membrane; also called position Nr 37
B51: CND2_HUMAN peptide ILTKSTL (peptide)
peptide: ILTKSTL
notes: spot-synthesized on membrane; also called position Nr 51
B52: MYST3_HUMAN peptide ILTKPTL (peptide)
peptide: ILTKPTL
notes: spot-synthesized on membrane; also called position Nr 28
B53: CPNE2_HUMAN peptide ILLIITD (peptide)
peptide: ILLIITD
notes: spot-synthesized on membrane; also called Copine-2 (CPNE2) segment; position Nr 42
B54: CCNI2_HUMAN peptide ALVIITL (peptide)
peptide: ALVIITL
notes: spot-synthesized on membrane; also called position Nr 23
B55: LONF2_HUMAN peptide ILVIITR (peptide)
peptide: ILVIITR
notes: spot-synthesized on membrane; also called position Nr 48
B56: MP2K4_HUMAN peptide ILGKITL (peptide)
peptide: ILGKITL
notes: spot-synthesized on membrane; also called position Nr 17
B57: FLAG-tagged Cyclin-I2 (other, human, UniProt Q6ZMN8 1-369, looked up)
chain: MASGAQLPPQPSSSEVSAVQSPGGRPGAGLEETALGVPLPPSPGEAPLPRSNRSRCPGTRQPGAASLHAASAAVPVRPRRGTAPAGKTADAVPAAAPEQAPRPAPQSRKPRNLEGDLDERRLLCHLQLAQDREARLWRGGKPQDEICDAFEEVVLWLLRLQNTFYFSQSTFNLALTIFGRLLISVKVKEKYLHCATITSLRLAAKVNEEEEFIPQVKDFTKHYGSDYSPNELLRMELAILDRLHWDLYIGTPLDFLTIFHALVVLSWPHVLELLPQRNPSLHVASLTRQLQHCMAGHQLLQFKGSTLALVIITLELERLMPGWCAPISDLLKKAQVGDMQYSCCKELVMQQLRSLQSSSCTDNFVSPAN
notes: also called CCNI2_HUMAN; CCNI2

These results are taken from patent US20140170239A1 (VRIJE UNIVERSITEIT BRUSSEL, published 2014).

Where no end group is shown, it is not given here.
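For Binding intensity (normalized) in this document: Membrane-bound synthesized peptide spots exposed to the biotinylated p53 aggregation-prone peptide, bound material revealed via streptavidin-HRP and chemiluminescence, spot signal reflecting binding.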

The target in one assay is T1, biotinylated p53β peptide. Kind of assay: peptide-binding assay: peptide spots on membrane, biotinylated p53β peptide, streptavidin-HRP.
Description: (§1) Subsequently, the ability of the selected peptides to interact with p53β using an in vitro peptide-binding assay was empirically determined. Therefore, the 56 selected peptides were spot-synthesized on a cellulose membrane, which was subsequently incubated with biotinylated p53β peptide (FIG. 17, panel b). After washing, the membrane was treated with streptavidine-HRP to detect p53β binding (FIG. 17, panel c).
(§2) Peptides of selected sequences were spot synthesized on PVDF membrane (PepSpot, JPT). The membranes were blocked by 1% BSA in phosphate-buffered saline for 1 hour at room temperature, and then incubated with biotinylated peptide containing the p53-aggregating sequence for 1 hour. After rinsing with 0.1% TWEEN® 20 in 25 mM MES buffer pH 7.0, membranes were incubated in HRP-labeled Streptavidin (Thermo) and visualized with electrochemical luminescence (ECL) system.
For B1, the “Binding intensity (normalized)” value is 7.89 normalized.

For B2, the “Binding intensity (normalized)” value came out at 19.6 normalized. On to B3, for which the “Binding intensity (normalized)” value is 99 normalized. For the molecule B4, the “Binding intensity (normalized)” value was 92 normalized. As to B5, the “Binding intensity (normalized)” value stood at 100 normalized. Take B6: the “Binding intensity (normalized)” value came out at 15.6 normalized. As for B7, the “Binding intensity (normalized)” value turned out to be 36.7 normalized.

Consider B8, for which the “Binding intensity (normalized)” value is 5.27 normalized. As to B9, the “Binding intensity (normalized)” value stood at 32.1 normalized. Turning to B10, the “Binding intensity (normalized)” value stood at 26.6 normalized. On the same count and under the same terms, then B11, with 17.2 normalized; and B12, with 11.4 normalized. In the case of B13, the “Binding intensity (normalized)” value turned out to be 30.9 normalized. Still for that read-out and setting: the same measure for B14: 4.39 normalized. Same read-out and setting: then B15, with 4.81 normalized; and B16, with 10.9 normalized; and B17, with 17.3 normalized. Take B18: the “Binding intensity (normalized)” value amounted to 2.39 normalized. Take B19: the “Binding intensity (normalized)” value was determined as 10.2 normalized. Take B20: the “Binding intensity (normalized)” value was found to be 6.72 normalized. For the molecule B21, the “Binding intensity (normalized)” value turned out to be 26.4 normalized.

Turning to B22, the “Binding intensity (normalized)” value is 7.06 normalized. On to B23, for which the “Binding intensity (normalized)” value stood at 6.48 normalized. As for B24, the “Binding intensity (normalized)” value came to 9.72 normalized.

Regarding B25, the “Binding intensity (normalized)” value was 19.8 normalized. The same measure, in the same setting: the same measure for B26: 12.1 normalized; for B27: 14.7 normalized; for B28: 6.47 normalized. Take B29: the “Binding intensity (normalized)” value stood at 40.2 normalized.

B30: the “Binding intensity (normalized)” value stood at 23.8 normalized. As to B31, the “Binding intensity (normalized)” value stood at 10.2 normalized. Regarding B32, the “Binding intensity (normalized)” value was 3.95 normalized.

As to B33, the “Binding intensity (normalized)” value worked out at 1.55 normalized. B34: the “Binding intensity (normalized)” value stood at 79.6 normalized. As for B35, the “Binding intensity (normalized)” value was 5.88 normalized. Consider B36, for which the “Binding intensity (normalized)” value stood at 8.65 normalized. Consider B37, for which the “Binding intensity (normalized)” value is 78.9 normalized.

Regarding B38, the “Binding intensity (normalized)” value was 3.03 normalized.

Take B39: the “Binding intensity (normalized)” value was found to be 17.9 normalized. Take B40: the “Binding intensity (normalized)” value is 3.67 normalized. The same measure, in the same setting: then B41, with 6.2 normalized; and B42, with 9.77 normalized. With B43, the “Binding intensity (normalized)” value was found to be 26.3 normalized.

For B44, the “Binding intensity (normalized)” value came to 14.1 normalized.

As to B45, the “Binding intensity (normalized)” value was 77 normalized. On the same count and under the same terms, the same measure for B46: 8.54 normalized. For B47, the “Binding intensity (normalized)” value worked out at 8.22 normalized. The same measure, in the same setting: the same measure for B48: 12.9 normalized; for B49: 49.2 normalized. Same read-out and setting: the same measure for B50: 33.3 normalized; for B51: 17.9 normalized; for B52: 16.1 normalized. With B53, the “Binding intensity (normalized)” value is 111 normalized. Same read-out and setting: the same measure for B54: 43.4 normalized; for B55: 6.81 normalized; for B56: 16.9 normalized.

A further assay has as its target T2, HA-tagged wild-type p53 (human, UniProt P04637 1-393).
T2 construct: range 1-393; expressed in cells, tested in cell lysate; also called WT p53; p53-HA
The assay can be described thus: co-IP, HeLa cells, anti-FLAG IP, anti-HA blot.
Description: HeLa (Human epithelial carcinoma) cells were cultured in DMEM supplemented with 10% fetal calf serum (Gibco), L-glutamine (4 mM), penicillin (100 U/ml), and streptomycin (100 U/ml). Proliferating cell cultures were maintained in a 5% CO2-humidified incubator at 37° C. […] The complex of DNA and FuGENE HD was prepared in 500 μL DMEM and incubated for 20 minutes before adding to cells. For stable transfection, DMEM medium containing 10% fetal calf serum and 500 μg/mL G418 was used to select colonies that carried the transfected vector for six weeks, and expression of the vector was validated by Western blot. Stably transfected cells were maintained in medium containing 250 μg/mL G418 for further analysis. Transfection of siRNA for p53 (Santa Cruz) was performed using X-tremeGENE siRNA transfection reagent (Roche) according to the manufacturer's instructions.
Hela cells co-transfected with mutant HA-p53 and FLAG-tagged proteins were lysed with RIPA buffer (Thermo) with DNase and protease inhibitors (Roche) for 30 minutes on ice. […] After incubation at 21° C. for 1 hour, the agarose beads were rinsed with 200 μL TBS three times, and subsequently eluted by heating at 95° C. in presence of SDS (without DTT). The co-immunoprecipitated p53 was detected with mouse anti-HA antibody or anti-p53.
For B57, the binding result is recorded as “no binding”.

Another assay concerns the target T1, biotinylated p53β peptide. Kind of assay: peptide-binding assay: peptide spots on membrane, biotinylated p53β peptide, streptavidin-HRP. This is another data set of the same source.
Description: as §1, §2
For the molecule B3, the “Coaggregation (peptide binding)” value came out at 99%.

Consider B4, for which the “Coaggregation (peptide binding)” value stood at 92%. Take B12: the “Coaggregation (peptide binding)” value was 11.4%. For the molecule B15, the “Coaggregation (peptide binding)” value was 4.8%.

Consider B31, for which the “Coaggregation (peptide binding)” value was 10.2%. B34: the “Coaggregation (peptide binding)” value turned out to be 79.6%. Turning to B37, the “Coaggregation (peptide binding)” value amounted to 78.9%.

Consider B45, for which the “Coaggregation (peptide binding)” value was found to be 77%. B49: the “Coaggregation (peptide binding)” value turned out to be 49.2%. B53: the “Coaggregation (peptide binding)” value worked out at 111%. Consider B54, for which the “Coaggregation (peptide binding)” value worked out at 43.4%.
